Source: article PMC11369088

Target: C-terminal FLAG-tag TEX264 (UniProt Q9Y6I9)
Assay: co-IP; FLAG co-IP of FLAG-tagged ER-phagy receptor from HEK293 Tg-NLuc cells in TNI buffer (50 mM Tris pH 7.5, 150 mM NaCl, 0.5% IGEPAL CA-630), four washes; Tg-NLuc on the resin read by nano-glo luciferase assay; against GFP control

Chain of UniProt Q9Y6I9 (Q9Y6I9 whole entry): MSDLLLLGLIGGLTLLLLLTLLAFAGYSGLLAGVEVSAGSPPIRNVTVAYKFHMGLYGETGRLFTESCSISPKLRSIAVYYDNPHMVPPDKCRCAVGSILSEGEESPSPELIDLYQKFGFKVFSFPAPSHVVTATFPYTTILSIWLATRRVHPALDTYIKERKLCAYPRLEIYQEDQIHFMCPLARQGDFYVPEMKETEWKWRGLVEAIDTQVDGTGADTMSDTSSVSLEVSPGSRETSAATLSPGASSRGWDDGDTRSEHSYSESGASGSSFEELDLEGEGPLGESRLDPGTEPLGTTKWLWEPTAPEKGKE

## nanoluciferase-tagged thyroglobulin C1264R (C1264R Tg-NLuc), P01266 20-2768
  fold interaction against A2234D Tg: 2 fold
  fold interaction against WT Tg: 3 fold
